By Kd is commonly meant the free concentration of one partner at which half of the binding sites on the other are occupied at equilibrium, for simple one-to-one binding. What is called koff is a measure of how fast the partners let go of each other. By kon is commonly meant a measure of how fast the partners come together.

Assay [1] deals with T1, recombinant human CD3 epsilon/delta heterodimer (human, UniProt P07766 23-126; P04234 22-105).
T1 construct: Recombinant protein in solution (200-50 nM) in the Octet assay; also called hCD3 E/D; human CD3E/D
The assay is described as follows: Octet BLI, mAb on FAB2G sensor, hCD3 E/D 200-50 nM; R^2 0.99. In general terms: BLI is a label-free optical method that tracks binding on a fibre tip over time.

The target in assay [2] is T2, recombinant human CD3 epsilon/gamma heterodimer (human, UniProt P07766 23-126; P09693 23-116).
T2 construct: Recombinant protein in solution (200-50 nM) in the Octet assay; also called hCD3 E/G
The assay is described as follows: Octet BLI, mAb on FAB2G sensor, hCD3 E/G 200-50 nM; R^2 0.98.

Assay [3] concerns the target T3, human CD3 (TCR/CD3 complex on the cell surface) (human, UniProt P07766 23-207; P04234 22-171; P09693 23-182).
T3 construct: whole, on cells; Native CD3 on human Pan-T cells or Jurkat wild-type cells; also called CD3 on Pan-T cells; CD3 on Jurkat WT cells
The experiment in a line: flow cytometry, Pan-T cells, 1 ug/mL. In general terms: A flow cytometer gives signals particle by particle.

Assay [4] concerns the target T3, human CD3 (TCR/CD3 complex on the cell …). The assay is described as follows: flow cytometry, Pan-T cells, 10 ug/mL.
Assay [5] shares this target. The experiment in a line: flow cytometry, Jurkat WT cells, 1 ug/mL.
Assay [6] has the same target. The assay is described as follows: flow cytometry, Jurkat WT cells, 10 ug/mL.
Assay [7] has the same target. The experiment in a line: flow cytometry, Jurkat WT gMFI over Jurkat KO gMFI, 1 ug/mL.
For assay [8] the target is unchanged. The assay is described as follows: flow cytometry, Jurkat WT gMFI over Jurkat KO gMFI, 10 ug/mL.

T3 sequence (P07766 23-207, chain 1 of 3): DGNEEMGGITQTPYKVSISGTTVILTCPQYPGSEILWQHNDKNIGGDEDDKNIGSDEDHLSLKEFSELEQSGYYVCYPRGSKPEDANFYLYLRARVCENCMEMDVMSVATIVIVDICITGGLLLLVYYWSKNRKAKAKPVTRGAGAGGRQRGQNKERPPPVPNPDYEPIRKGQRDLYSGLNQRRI
T3 sequence (P04234 22-171, chain 2 of 3): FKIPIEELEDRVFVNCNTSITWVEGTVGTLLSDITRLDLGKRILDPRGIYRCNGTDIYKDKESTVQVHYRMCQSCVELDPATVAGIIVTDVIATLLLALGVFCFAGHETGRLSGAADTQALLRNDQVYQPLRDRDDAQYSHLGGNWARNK
T3 sequence (P09693 23-182, chain 3 of 3): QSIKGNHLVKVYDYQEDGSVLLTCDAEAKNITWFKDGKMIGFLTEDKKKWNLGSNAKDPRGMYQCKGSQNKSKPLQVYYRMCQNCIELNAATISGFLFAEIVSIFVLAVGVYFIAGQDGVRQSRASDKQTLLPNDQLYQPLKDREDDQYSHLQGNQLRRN
T2 sequence (P07766 23-126, chain 1 of 2): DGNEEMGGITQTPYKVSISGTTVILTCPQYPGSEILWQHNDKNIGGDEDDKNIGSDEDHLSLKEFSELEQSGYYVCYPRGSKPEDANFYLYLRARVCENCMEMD
T2 sequence (P09693 23-116, chain 2 of 2): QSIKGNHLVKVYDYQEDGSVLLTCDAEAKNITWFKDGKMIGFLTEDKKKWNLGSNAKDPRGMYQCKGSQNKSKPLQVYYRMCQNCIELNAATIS
T1 sequence (P07766 23-126, stated change not applied, chain 1 of 2): as the sequence (P07766 23-126, chain 1 of 2) above
T1 sequence (P04234 22-105, stated change not applied, chain 2 of 2): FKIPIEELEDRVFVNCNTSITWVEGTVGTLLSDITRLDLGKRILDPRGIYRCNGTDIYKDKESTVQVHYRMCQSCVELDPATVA

B1: ABL-CD3-43 (antibody, V domains shown)
VH: EVQLVQSGAEVKKPGESLKISCKGSEYSFTTYWIAWVRQMPGKGLEWMGIIYPGDSDTTYSPSFQGQVTISADKSISIAFLQWSSLKASDTAMYYCARQGELDAFDIWGQGTMVTVSS
VL: QSALTQPASVSGSPGQSITISCTGTSSDVGSYNLVSWYQQHPGKAPKLMIYEDIRRPSGVSNRFSASKSGDTASLTISGLQAEDEADYYCCSYAGSTTFAIFGGGTKLTVL
notes: Chimeric hybridoma mAb: human V, CH1, upper hinge; mouse middle hinge, CH2, CH3
In the case of B1, in assay [1], the Kd is 6.2 nM, the Response stood at 0.62, the koff was 0.000754 s⁻¹ and the kon was determined as 122000 M⁻¹ s⁻¹. Also, in assay [2], the dissociation constant (Kd) is 6.94 nM, the Response is 0.62, the koff was determined as 0.00104 s⁻¹ and the kon amounted to 150000 M⁻¹ s⁻¹.

B2: CD3 × CD33-BspAb124 (bispecific antibody)
chain 1: not shown
chain 2: EVQLVQSGAEVKKPGSSVKVSCKASGYTITDSNIHWVRQAPGQSLEWIGYIYPYNGGTDYNQKFKNRATLTVDNPTNTAYMELSSLRSEDTAFYYCVNGNPWLAYWGQGTLVTVSSASTKGPSVFPLAPSSKSTSGGTAALGCLVKDYFPEPVTVSWNSGALTSGVHTFPAVLQSSGLYSLSSVVTVPSSSLGTQTYICNVNHKPSNTKVDKRVEPKSCDKTHTCPPCPAPEFEGGPSVFLFPPKPKDTLMISRTPEVTCVVVDVSHEDPEVKFNWYVDGVEVHNAKTKPREEQYNSTYRVVSVLTVLHQDWLNGKEYKCKVSNKALPASIEKTISKAKGQPREPQVCTLPPSREEMTKNQVSLSCAVKGFYPSDIAVEWESNGQPENNYKTTPPVLDSDGSFFLVSKLTVDKSRWQQGNVFSCSVMHEALHNRFTQKSLSLSPGK
chain 3: DIQLTQSPSTLSASVGDRVTITCRASESLDNYGIRFLTWFQQKPGKAPKLLMYAASNQGSGVPSRFSGSGSGTEFTLTISSLQPDDFATYYCQQTKEVPWSFGQGTKVEVKRTVAAPSVFIFPPSDEQLKSGTASVVCLLNNFYPREAKVQWKVDNALQSGNSQESVTEQDSKDSTYSLSSTLTLSKADYEKHKVYACEVTHQGLSSPVTKSFNRGEC
For the molecule B2, the results for the “% Positive” value in assay [3] and in assay [4] were 1.5% and 1%, respectively. Also, the gMFI in assay [3] came out at 1950 gMFI; in assay [4], 1970 gMFI; in assay [5], 1800 gMFI; in assay [6], 1790 gMFI. Further, the “Jurkat WT/KO (Fold)” value in assay [7] and in assay [8] was 0.9 fold in each case.

B3: CD3 × CD33-BspAb125 (bispecific antibody)
chain 1: not shown
chain 2: EVQLVQSGAEVKKPGSSVKVSCKASGYTITDSNIHWVRQAPGQSLEWIGYIYPYNGGTDYNQKFKNRATLTVDNPTNTAYMELSSLRSEDTAFYYCVNGNPWLAYWGQGTLVTVSSASTKGPSVFPLAPSSKSTSGGTAALGCLVKDYFPEPVTVSWNSGALTSGVHTFPAVLQSSGLYSLSSVVTVPSSSLGTQTYICNVNHKPSNTKVDKRVEPKSCDKTHTCPPCPAPEFEGGPSVFLFPPKPKDTLMISRTPEVTCVVVDVSHEDPEVKFNWYVDGVEVHNAKTKPREEQYNSTYRVVSVLTVLHQDWLNGKEYKCKVSNKALPASIEKTISKAKGQPREPQVCTLPPSREEMTKNQVSLSCAVKGFYPSDIAVEWESNGQPENNYKTTPPVLDSDGSFFLVSKLTVDKSRWQQGNVFSCSVMHEALHNRFTQKSLSLSPGK
chain 3: DIQLTQSPSTLSASVGDRVTITCRASESLDNYGIRFLTWFQQKPGKAPKLLMYAASNQGSGVPSRFSGSGSGTEFTLTISSLQPDDFATYYCQQTKEVPWSFGQGTKVEVKRTVAAPSVFIFPPSDEQLKSGTASVVCLLNNFYPREAKVQWKVDNALQSGNSQESVTEQDSKDSTYSLSSTLTLSKADYEKHKVYACEVTHQGLSSPVTKSFNRGEC
For B3, the results for the “% Positive” value in assay [3] and in assay [4] were 42.2% and 95.4%, respectively. Further, the gMFI in assay [3] worked out at 6020 gMFI; in assay [4], 28700 gMFI; in assay [5], 3680 gMFI; in assay [6], 13700 gMFI. Also, the “Jurkat WT/KO (Fold)” value in assay [7] worked out at 1.5 fold; in assay [8], 5.3 fold.

B4: CD3 × CD33-BspAb68 (bispecific antibody)
scFv-Fc: EVQLVESGGGLVKPGGSLRLSCSASGFTFSTYTMNWVRQAPGKCLEWVSSISKSSSYIYYTDSVKGRFTISRDNAKNSLYLQMNSLRAEDTAVYYCARERRTLAFDIWGQGTMVTVSSGGGGSGGGGSGGGGSGGGGSNFMLTQPHSVSESPGKTVTISCTRSSGSIASNYVQWYQQRPGSSPTTVIYEDNQRSSGVPDRFSGSIDSSSNSASLTISGLKTEDEADYYCQSYDRSNRVFGCGTKLTVLGGGGSDKTHTCPPCPAPEFEGGPSVFLFPPKPKDTLMISRTPEVTCVVVDVSHEDPEVKFNWYVDGVEVHNAKTKPREEQYNSTYRVVSVLTVLHQDWLNGKEYKCKVSNKALPASIEKTISKAKGQPREPQVYTLPPCREEMTKNQVSLWCLVKGFYPSDIAVEWESNGQPENNYKTTPPVLDSDGSFFLYSKLTVDKSRWQQGNVFSCSVMHEALHNHYTQKSLSLSPGK
heavy: EVQLVQSGAEVKKPGSSVKVSCKASGYTITDSNIHWVRQAPGQSLEWIGYIYPYNGGTDYNQKFKNRATLTVDNPTNTAYMELSSLRSEDTAFYYCVNGNPWLAYWGQGTLVTVSSASTKGPSVFPLAPSSKSTSGGTAALGCLVKDYFPEPVTVSWNSGALTSGVHTFPAVLQSSGLYSLSSVVTVPSSSLGTQTYICNVNHKPSNTKVDKRVEPKSCDKTHTCPPCPAPEFEGGPSVFLFPPKPKDTLMISRTPEVTCVVVDVSHEDPEVKFNWYVDGVEVHNAKTKPREEQYNSTYRVVSVLTVLHQDWLNGKEYKCKVSNKALPASIEKTISKAKGQPREPQVCTLPPSREEMTKNQVSLSCAVKGFYPSDIAVEWESNGQPENNYKTTPPVLDSDGSFFLVSKLTVDKSRWQQGNVFSCSVMHEALHNRFTQKSLSLSPGK
light: DIQLTQSPSTLSASVGDRVTITCRASESLDNYGIRFLTWFQQKPGKAPKLLMYAASNQGSGVPSRFSGSGSGTEFTLTISSLQPDDFATYYCQQTKEVPWSFGQGTKVEVKRTVAAPSVFIFPPSDEQLKSGTASVVCLLNNFYPREAKVQWKVDNALQSGNSQESVTEQDSKDSTYSLSSTLTLSKADYEKHKVYACEVTHQGLSSPVTKSFNRGEC
notes: KiH heterodimer
B4: the figures for the “% Positive” value in assay [3] and in assay [4] were 100% and 99.9%, respectively. The gMFI in assay [3] turned out to be 539000 gMFI; in assay [4] it was 601000 gMFI; in assay [5] it was 58000 gMFI; in assay [6], 63600 gMFI. The “Jurkat WT/KO (Fold)” value in assay [7] worked out at 12.9 fold; in assay [8], 13.6 fold.

B5: CD3 × CD33-BspAb69 (bispecific antibody)
chain 1: EVQLVESGGGLVKPGGSLRLSCAASGFTFSYYSMNWVRQAPGKCLEWVSSISRSTTYIYYADSVKGRFTISRDNAKNSLYLQMNSLRAEDTAVYYCARDGKGAIFLDYWGQGTLVTVSSGGGGSGGGGSGGGGSGGGGSSYELTQPPSVSVSPGQTARITCSGDALPKKYAYWYQQKSGQAPVLVIYEDSKRPSGIPERFSGSSSGTMATLTISGAQVEDEADYYCYSTDSSGNHRVFGCGTKLTVLDKTHTCPPCPAPEFEGGPSVFLFPPKPKDTLMISRTPEVTCVVVDVSHEDPEVKFNWYVDGVEVHNAKTKPREEQYNSTYRVVSVLTVLHQDWLNGKEYKCKVSNKALPASIEKTISKAKGQPREPQVYTLPPCREEMTKNQVSLWCLVKGFYPSDIAVEWESNGQPENNYKTTPPVLDSDGSFFLYSKLTVDKSRWQQGNVFSCSVMHEALHNHYTQKSLSLSPGK
chain 2: EVQLVQSGAEVKKPGSSVKVSCKASGYTITDSNIHWVRQAPGQSLEWIGYIYPYNGGTDYNQKFKNRATLTVDNPTNTAYMELSSLRSEDTAFYYCVNGNPWLAYWGQGTLVTVSSASTKGPSVFPLAPSSKSTSGGTAALGCLVKDYFPEPVTVSWNSGALTSGVHTFPAVLQSSGLYSLSSVVTVPSSSLGTQTYICNVNHKPSNTKVDKRVEPKSCDKTHTCPPCPAPEFEGGPSVFLFPPKPKDTLMISRTPEVTCVVVDVSHEDPEVKFNWYVDGVEVHNAKTKPREEQYNSTYRVVSVLTVLHQDWLNGKEYKCKVSNKALPASIEKTISKAKGQPREPQVCTLPPSREEMTKNQVSLSCAVKGFYPSDIAVEWESNGQPENNYKTTPPVLDSDGSFFLVSKLTVDKSRWQQGNVFSCSVMHEALHNRFTQKSLSLSPGK
chain 3: DIQLTQSPSTLSASVGDRVTITCRASESLDNYGIRFLTWFQQKPGKAPKLLMYAASNQGSGVPSRFSGSGSGTEFTLTISSLQPDDFATYYCQQTKEVPWSFGQGTKVEVKRTVAAPSVFIFPPSDEQLKSGTASVVCLLNNFYPREAKVQWKVDNALQSGNSQESVTEQDSKDSTYSLSSTLTLSKADYEKHKVYACEVTHQGLSSPVTKSFNRGEC
In the case of B5, the “% Positive” value was 99.7% in assay [3] and 99.8% in assay [4]. For the same molecule, the gMFI in assay [3] was 95300 gMFI; in assay [4], 281000 gMFI; in assay [5], 16500 gMFI; in assay [6], 25800 gMFI. In addition, the “Jurkat WT/KO (Fold)” value in assay [7] worked out at 6.3 fold; in assay [8], 8.7 fold.

B6: ABL-CD3-46 (antibody, V domains shown)
VH: EVQLVESGGGLVKPGGSLRLSCSASGFTFSTYTMNWVRQAPGKGLDWVSSISKSSTYIYYADSVKGRFTISRDNAKNSLYLQMNSLRAEDTAVYYCARERRTLAFDIWGQGTMVTVSS
VL: NFMLTQPHSVSESPGKTVTISCTRSSGSIASNYVQWYQQRPGSSPTTVIYEDNQRPSGVPDRFSGSIDSSSNSASLTISGLKTEDEADYYCQCYDRSNRVFGGGTKLTVL
notes: as for B1
Consider B6, for which, in assay [1], the Kd came out at 9.48 nM, the Response came out at 1.02, the off-rate (koff) was determined as 0.00171 s⁻¹ and the kon was determined as 180000 M⁻¹ s⁻¹. In addition, in assay [2], the equilibrium dissociation constant (Kd) amounted to 16.3 nM, the Response turned out to be 0.88, the koff worked out at 0.00333 s⁻¹ and the on-rate (kon) worked out at 204000 M⁻¹ s⁻¹.
